In the supplement of paper PMC10724198:
± gives the standard deviation of the averaged measurements.

How the values were obtained:
Saccharomyces cerevisiae [1] = assay: protein stability index of tFT-peptide fusion (C-terminal peptide) (PSI (0-1 scale)); higher = more stable (slower turnover)
Description: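 MPS profiling in S. cerevisiae of the tFT-X12 degron library: putative degron peptides plus stable controls, 12 aa, fused to the C-terminus of a sfGFP-mCherry timer. Cells are FACS-sorted into 8 mCherry/sfGFP bins and deep-sequenced. PSI runs from 0 (unstable) to 1 (stable). Backgrounds are wild type, das1Δ and doa10Δ at 30 °C, and wild type, das1Δ, cdc34-1 and cdc53-1 at 37 °C; 2-3 technical replicates each.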

Saccharomyces cerevisiae [2] = assay: as above; details: genetic background: wild type; temperature: 30 C
[3] = genetic background: cdc34-1, temperature: 37 C
[4] = genetic background: cdc53-1, temperature: 37 C
[5] = genetic background: das1 deletion, temperature: 30 C
[6] = genetic background: das1 deletion, temperature: 37 C
[7] = genetic background: doa10 deletion, temperature: 30 C
[8] = genetic background: wild type, temperature: 30 C
[9] = genetic background: wild type, temperature: 37 C
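Also: PSI is a weighted mean of sequencing reads over stability bins, variants kept only with over 10 reads, mCherry proximal and sfGFP distal, peptide attached via GGGS linker.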

Row | Sequence | protein stability index (Saccharomyces cerevisiae [1]; [3]) | protein stability index (Saccharomyces cerevisiae [1]; [4]) | protein stability index (Saccharomyces cerevisiae [1]; [5]) | protein stability index (Saccharomyces cerevisiae [1]; [6]) | protein stability index (Saccharomyces cerevisiae [1]; [7]) | protein stability index (Saccharomyces cerevisiae [1]; [8]) | protein stability index (Saccharomyces cerevisiae [1]; [9]) | protein stability index (Saccharomyces cerevisiae [2])
1 | TEVGAWLLLCRC | 0.271 ± 0.051 | 0.307 ± 0.01 | 0.268 ± 0.034 | 0.403 ± 0.02 | 0.231 ± 0.0043 | 0.277 ± 0.017 | 0.385 ± 0.0097 | 0.363 ± 0.009
2 | TFLVWSLMAGDR | 0.449 ± 0.033 | 0.5276 ± 0.00077 | 0.447 ± 0.023 | 0.4667 ± 0.0043 | 0.484 ± 0.011 | 0.474 ± 0.043 | 0.459 ± 0.032 | 0.464 ± 0.03
3 | TFRVLAFFCRVV | 0.453 ± 0.0089 | 0.538 ± 0.015 | 0.47 ± 0.03 | 0.616 ± 0.059 | 0.308 ± 0.0053 | 0.286 ± 0.025 | 0.3902 ± 0.0029 | 0.367 ± 0.012
4 | TKGIIKKINIIM | 0.624 ± 0.14 | 0.73 ± 0.039 | 0.617 ± 0.016 | 0.724 ± 0.0084 | 0.154 ± 0.0088 | 0.206 ± 0.035 | 0.467 ± 0.09 | 0.36 ± 0.014
5 | TLCCLVCSQGVV | 0.478 ± 0.051 | 0.598 ± 0.013 | 0.471 ± 0.027 | 0.5217 ± 0.0031 | 0.482 ± 0.031 | 0.479 ± 0.039 | 0.526 ± 0.01 | 0.484 ± 0.016
6 | TLFSPPVLATPS | 0.624 ± 0.042 | 0.6754 ± 0.0047 | 0.528 ± 0.026 | 0.676 ± 0.0092 | 0.513 ± 0.021 | 0.54 ± 0.014 | 0.644 ± 0.0088 | 0.0225 ± 0.011
7 | TLLSSIFLCLVL | 0.575 ± 0.018 | 0.6448 ± 0.0023 | 0.477 ± 0.031 | 0.6128 ± 0.0011 | 0.466 ± 0.012 | 0.462 ± 0.024 | 0.574 ± 0.022 | 0.541 ± 0.1
8 | TRHIGQYIHKIT | 0.641 ± 0.048 | 0.734 ± 0.027 | 0.635 ± 0.027 | 0.694 ± 0.037 | 0.151 ± 0.0037 | 0.233 ± 0.049 | 0.436 ± 0.0061 | 0.339 ± 0.081
9 | TSFLHLFVAAII | 0.588 ± 0.027 | 0.632 ± 0.045 | 0.499 ± 0.02 | 0.5932 ± 0.0013 | 0.415 ± 0.009 | 0.434 ± 0.012 | 0.5505 ± 0.004 | 0.513 ± 0.024
10 | TSLPPSPPPSPT | 0.682 ± 0.016 | 0.713 ± 0.17 | 0.392 ± 0.044 | 0.563 ± 0.0085 | 0.373 ± 0.014 | 0.392 ± 0.012 | 0.562 ± 0.033 | 0.476 ± 0.025
11 | TSPYTSFAHTSL | 0.694 ± 0.029 | 0.739 ± 0.016 | 0.677 ± 0.031 | 0.739 ± 0.0074 | 0.662 ± 0.017 | 0.6569 ± 0.006 | 0.71286 ± 0.00012 | 0.69 ± 0.022
12 | VAFGVASGWCWF | 0.748 ± 0.048 | 0.8066 ± 0.0046 | 0.687 ± 0.016 | 0.848 ± 0.0032 | 0.373 ± 0.0093 | 0.397 ± 0.015 | 0.6902 ± 0.0057 | 0.488 ± 0.02
13 | VAFILVVCKGIG | 0.187 ± 0.029 | 0.2776 ± 0.0022 | 0.175 ± 0.016 | 0.327 ± 0.0048 | 0.122 ± 0.015 | 0.152 ± 0.013 | 0.287 ± 0.0077 | 0.2024 ± 0.00042
14 | VAWWVCIRSCCG | 0.51 ± 0.023 | 0.55 ± 0.057 | 0.427 ± 0.027 | 0.577 ± 0.012 | 0.353 ± 0.012 | 0.395 ± 0.015 | 0.53 ± 0.0066 | 0.486 ± 0.028
15 | VCCSSVSLLVFA | 0.362 ± 0.017 | 0.363 ± 0.01 | 0.267 ± 0.028 | 0.44 ± 0.0076 | 0.225 ± 0.0042 | 0.256 ± 0.033 | 0.419 ± 0.01 | 0.374 ± 0.023
16 | VCGYGFAVPCYT | 0.489 ± 0.013 | 0.549 ± 0.021 | 0.37 ± 0.026 | 0.5832 ± 0.0026 | 0.327 ± 0.012 | 0.372 ± 0.012 | 0.535 ± 0.0076 | 0.437 ± 0.02
17 | VCILLVAWCLMG | 0.168 ± 0.023 | 0.289 ± 0.049 | 0.24 ± 0.022 | 0.384 ± 0.0058 | 0.108 ± 0.02 | 0.124 ± 0.02 | 0.1546 ± 0.00053 | 0.217 ± 0.0097
18 | VCLLGWGVRLVS | 0.667 ± 0.031 | 0.7294 ± 0.0045 | 0.609 ± 0.038 | 0.72374 ± 7.5e-05 | 0.321 ± 0.0052 | 0.371 ± 0.023 | 0.576 ± 0.01 | 0.505 ± 0.079
19 | VCMHIVLLAASP | 0.244 ± 0.02 | 0.317 ± 0.017 | 0.187 ± 0.0068 | 0.284 ± 0.014 | 0.201 ± 0.028 | 0.202 ± 0.021 | 0.263 ± 0.011 | 0.193 ± 0.002
